Laboratory results reported in patent US20180371107A1 (published 2018).
Residue numbers refer to the chain shown, from its start.

T1: mouse active NSP4 (mA-NSP4) (mouse, UniProt Q14B24 40-284)
T1 chain: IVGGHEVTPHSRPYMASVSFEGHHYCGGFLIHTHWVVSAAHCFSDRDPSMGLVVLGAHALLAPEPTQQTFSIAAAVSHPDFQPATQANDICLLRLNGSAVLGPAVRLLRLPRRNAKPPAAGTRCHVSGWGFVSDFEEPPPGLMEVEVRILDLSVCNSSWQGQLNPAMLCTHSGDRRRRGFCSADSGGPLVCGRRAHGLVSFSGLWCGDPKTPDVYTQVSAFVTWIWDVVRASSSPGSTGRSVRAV

T2: mouse zymogen NSP4 (mZ-NSP4) (mouse, UniProt Q14B24 36-284)
T2 chain: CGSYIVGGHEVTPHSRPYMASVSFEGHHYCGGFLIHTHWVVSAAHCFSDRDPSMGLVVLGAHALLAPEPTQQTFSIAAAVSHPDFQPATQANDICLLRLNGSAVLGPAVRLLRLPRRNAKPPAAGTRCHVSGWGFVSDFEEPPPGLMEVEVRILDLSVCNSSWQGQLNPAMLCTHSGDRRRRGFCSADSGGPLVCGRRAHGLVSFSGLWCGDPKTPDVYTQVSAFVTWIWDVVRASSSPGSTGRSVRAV

T3: mouse NSP4 (mNSP4), form not stated in Example 6 (mouse, UniProt Q14B24 40-284, limits assumed)
T3 construct: also called recombinant mouse NSP4; purified mouse NSP4
T3 sequence (looked up): T1 chain

T4: human NSP4 (hNSP4), form not stated in Example 6 (human, UniProt Q6UWY2 34-283, limits assumed)
T4 sequence (looked up): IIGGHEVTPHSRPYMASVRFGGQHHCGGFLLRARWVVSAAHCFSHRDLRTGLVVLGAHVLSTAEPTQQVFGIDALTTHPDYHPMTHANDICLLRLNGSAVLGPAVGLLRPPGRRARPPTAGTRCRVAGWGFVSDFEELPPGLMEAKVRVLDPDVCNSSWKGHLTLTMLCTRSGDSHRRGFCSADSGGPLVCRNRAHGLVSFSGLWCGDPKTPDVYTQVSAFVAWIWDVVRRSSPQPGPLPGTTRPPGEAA

T5: human active NSP4 (hA-NSP4) (human, UniProt Q6UWY2 34-283)
T5 construct: range 34-283; Insect-cell material of the same construct was used for the crystal structures; also called mature form of human NSP4
T5 sequence (looked up): T4 sequence (looked up)

T6: mouse active NSP4 (mA-NSP4) (mouse, UniProt Q14B24 40-284)
T6 construct: mature; Made from mZ by enteropeptidase cleavage; also called mature form of mouse NSP4
T6 sequence (looked up): T1 chain

B1: anti-NSP4 antibody 1-3 (antibody, V domains shown)
VH: EVQLVESGGGLVQPGGSLRLSCAASGFTFSDNWISWVRQAPGKGLEWVGYIYPASGYTDYADSVKGRFTISADTSKNTAYLQMNSLRAEDTAVYYCASDSPHAYWYAMDYWGQGTLVTVSS
VL: DIQMTQSPSSLSASVGDRVTITCRASQDVSTAVAWYQQKPGKAPKLLIYSASFLYSGVPSRFSGSGSGTDFTLTISSLQPEDFATYYCQQSYTTPPTFGQGTKVEIKR
B2: anti-NSP4 antibody 1-1 (antibody, V domains shown)
VH: EVQLVESGGGLVQPGGSLRLSCAASGFTFSGSWISWVRQAPGKGLEWVGTISPYNGSTYYADSVKGRFTISADTSKNTAYLQMNSLRAEDTAVYYCARVLRPKVYASVMDYWGQGTLVTVSS
VL: B1 VL
B3: anti-NSP4 antibody 4-4 (antibody, V domains shown)
VH: EVQLVESGGGLVQPGGSLRLSCAASGFTFTSTSIHWVRQAPGKGLEWVAEITPHGGYTNYADSVKGRFTISADTSKNTAYLQMNSLRAEDTAVYYCARGRTKWGWLYGMDYWGQGTLVTVSS
VL: B1 VL
B4: anti-NSP4 antibody 2-2 (antibody, V domains shown)
VH: EVQLVESGGGLVQPGGSLRLSCAASGFTFSSTAISWVRQAPGKGLEWVGEIYPSDGYTDYADSVKGRFTISADTSKNTAYLQMNSLRAEDTAVYYCARVKWAVSSLGVMDYWGQGTLVTVSS
VL: B1 VL
B5: anti-NSP4 antibody 2-5 (antibody, V domains shown)
VH: EVQLVESGGGLVQPGGSLRLSCAASGFTFTGYGISWVRQAPGKGLEWVGWIYPASGATYYADSVKGRFTISADTSKNTAYLQMNSLRAEDTAVYYCARHRAFDWYPYYIGSSVMDYWGQGTLVTVSS
VL: B1 VL
B6: anti-NSP4 antibody 1-2 (antibody, V domains shown)
VH: EVQLVESGGGLVQPGGSLRLSCAASGFTFSGYSIHWVRQAPGKGLEWVAGISPTNGYTDYADSVKGRFTISADTSKNTAYLQMNSLRAEDTAVYYCARLVFYRGVMDYWGQGTLVTVSS
VL: B1 VL
B7: anti-NSP4 antibody 4-2 (antibody, V domains shown)
VH: EVQLVESGGGLVQPGGSLRLSCAASGFTFSGSDISWVRQAPGKGLEWVGEIYPSNGDTYYADSVKGRFTISADTSKNTAYLQMNSLRAEDTAVYYCARSVRPSWWAMDYWGQGTLVTVSS
VL: B1 VL
B8: anti-NSP4 antibody 4-3 (antibody, V domains shown)
VH: EVQLVESGGGLVQPGGSLRLSCAASGFTFSSYDISWVRQAPGKGLEWVGTISPYDGYTDYADSVKGRFTISADTSKNTAYLQMNSLRAEDTAVYYCARYIRRYSVHYGMDYWGQGTLVTVSS
VL: B1 VL
B9: anti-NSP4 antibody 1-5 (antibody, V domains shown)
VH: EVQLVESGGGLVQPGGSLRLSCAASGFTFTNNSISWVRQAPGKGLEWVGAISPNNGSTYYADSVKGRFTISADTSKNTAYLQMNSLRAEDTAVYYCARNAWHYSWVGVMDYWGQGTLVTVSS
VL: B1 VL
B10: affinity matured anti-NSP4 antibody clone 51.72 (Fab, V domains shown)
VH: EVQLVESGGGLVQPGGSLRLSCAASGFTFSGSGIHWVRQAPGKGLEWVAWISPTGGNTYYADSVKGRFTISADTSKNTAYLQMNSLRAEDTAVYYCAKSLFHNVAFDYWGQGTLVTVSS
VL: B1 VL with T94A
B11: affinity matured anti-NSP4 antibody clone 51.30 (Fab, V domains shown)
VH: B10 VH with S52P, P53T, T54A
VL: B1 VL with T94A
B12: affinity matured anti-NSP4 antibody clone 51.50 (Fab, V domains shown)
VH: B10 VH
VL: B1 VL with S91A, Y92N, T93S
B13: affinity matured anti-NSP4 antibody clone 51.51 (Fab, V domains shown)
VH: B10 VH with K98R, S99G
VL: B1 VL with T94A
B14: affinity matured anti-NSP4 antibody clone 51.82 (Fab, V domains shown)
VH: B10 VH with K98R, S99G
VL: B1 VL with S91T, T93N, T94A
B15: affinity matured anti-NSP4 antibody clone 35.77 (Fab, V domains shown)
VH: B10 VH with S99R, L100H, F101L
VL: B1 VL with S91A, T93S, T94A
B16: affinity matured anti-NSP4 antibody clone 35.14 (Fab, V domains shown)
VH: EVQLVESGGGLVQPGGSLRLSCAASGFTFSDNDISWVRQAPGKGLEWVGSISPDNGDTNYADSVKGRFTISADTSKNTAYLQMNSLRAEDTAVYYCARDDVPAVFTSAMDYWGQGTLVTVSS
VL: B1 VL with T93G, T94F, P96L
B17: affinity matured anti-NSP4 antibody clone 35.50 (Fab, V domains shown)
VH: B16 VH
VL: B1 VL with T93D, T94F, P96L
B18: affinity matured anti-NSP4 antibody clone 35.62 (Fab, V domains shown)
VH: B16 VH
VL: B1 VL with Y92A, T93G, T94F, P96L
B19: anti-NSP4 antibody 2-3 (antibody, V domains shown)
VH: EVQLVESGGGLVQPGGSLRLSCAASGFTFTDSDISWVRQAPGKGLEWVAWISPSDGATDYADSVKGRFTISADTSKNTAYLQMNSLRAEDTAVYYCAHEASDDDYAIDYWGQGTLVTVSS
VL: B1 VL
B20: anti-NSP4 antibody 2-4 (antibody, V domains shown)
VH: EVQLVESGGGLVQPGGSLRLSCAASGFTFSDYWISWVRQAPGKGLEWVAGISPNNGDTYYADSVKGRFTISADTSKNTAYLQMNSLRAEDTAVYYCAREDDDERDYAMDYWGQGTLVTVSS
VL: B1 VL
B21: anti-NSP4 antibody 2-1 (antibody, V domains shown)
VH: EVQLVESGGGLVQPGGSLRLSCAASGFTFTDYSIHWVRQAPGKGLEWVAEIYPYSGDTYYADSVKGRFTISADTSKNTAYLQMNSLRAEDTAVYYCARDGDGWFDWAMDYWGQGTLVTVSS
VL: B1 VL
B22: anti-NSP4 antibody 5-2 (antibody, human IgG1, V domains shown)
VH: EVQLVESGGGLVQPGGSLRLSCAASGFTFSNTYISWVRQAPGKGLEWVGFIYPANGATYYADSVKGRFTISADTSKNTAYLQMNSLRAEDTAVYYCARRYRLSFDYWGQGTLVTVSS
VL: B1 VL
notes: also called Ab 5-2

Biological target: T1, mouse active NSP4 (mA-NSP4)
Assay: BLI; no affinity

Row | Binder | Kd [nM]
1 | B1 | > 1000
2 | B2 | > 1000
3 | B3 | > 1000
4 | B4 | > 1000
5 | B5 | > 1000
6 | B6 | > 1000
7 | B7 | > 1000
8 | B8 | > 1000
9 | B9 | > 1000

Biological target: T2, mouse zymogen NSP4 (mZ-NSP4)
Assay: BLI; no affinity

Row | Binder | Kd [nM]
10 | B1 | > 1000
11 | B2 | > 1000
12 | B3 | > 1000
13 | B6 | > 1000
14 | B7 | > 1000
15 | B8 | > 1000
16 | B9 | > 1000

The binders below were run against T3, mouse NSP4 (mNSP4), form not stated in … (assay: ratio of phage IC50 against the parental clone 51.WT).

Row | Binder | Affinity improvement to mNSP4 [fold]
17 | B10 | 49.8
18 | B11 | 161
19 | B12 | 178
20 | B13 | 63
21 | B14 | 505

What follows are binders tested against T3, mouse NSP4 (mNSP4), form not stated in … (assay: ratio of phage IC50 against the parental clone 35.WT).

Row | Binder | Affinity improvement to mNSP4 [fold]
22 | B15 | 2
23 | B16 | 2.7
24 | B17 | 1.7
25 | B18 | 0.6

What follows are binders tested against T4, human NSP4 (hNSP4), form not stated in … (assay: phage competition binding assay (phage IC50), soluble hNSP4 competitor).

Row | Binder | IC50 [nM]
26 | B16 | 23.4
27 | B17 | 22.8
28 | B18 | 25.7

What follows are binders tested against T3, mouse NSP4 (mNSP4), form not stated in … (assay: phage competition binding assay (phage IC50), soluble mNSP4 competitor).

Row | Binder | IC50 [nM]
29 | B10 | 0.375
30 | B15 | 0.064
31 | B11 | 0.116
32 | B12 | 0.105
33 | B13 | 0.296
34 | B14 | 0.037
35 | B16 | 0.048
36 | B17 | 0.075
37 | B18 | 0.206

These binders were tested against T5, human active NSP4 (hA-NSP4) (assay: competition phage ELISA (phage IC50): phage clone preincubated with soluble hA-NSP4, then on NSP4-coated wells).

Row | Binder | IC50 [nM]
38 | B3 | 1.48
39 | B4 | 10.1
40 | B5 | 5130
41 | B7 | 84.8
42 | B19 | 4.96
43 | B20 | 1.63
44 | B21 | 3.81

Each binder was assayed against T6, mouse active NSP4 (mA-NSP4) (assay: competition phage ELISA (phage IC50): phage clone preincubated with soluble mA-NSP4, then on NSP4-coated wells).
Procedure: Phage at sub-saturating concentrations were first incubated with increasing concentrations of target NSP4 antigen (either hZ, hA, mZ, or mA) for 1 to 2 hour(s), and then transferred to wells coated with the same NSP4 antigen to capture the unbound phage.
Briefly, 2 ug/ml of NSP4 (hZ, hA, mZ, or mA variants) was coated on wells overnight at 4° C. in PBS supplemented with 0.5% BSA. Each individual phage clone (at 0.01 OD/ml) was purified and incubated with increasing concentrations of soluble NSP4 protein for 2 h at room temperature before being placed into wells coated with immobilized NSP4 protein for 15 min at room temperature. The wells were then washed with PBS supplemented with 0.05% Tween-20 for 10 times and developed using anti-M13 phage antibody conjugated with HRP (New England Biolabs). […] The soluble phage:antigen complex, with higher likelihood to be high-affinity phage clones, would thus be removed through successive washing steps, resulting in lower A450 signal at any given concentration of soluble antigen. Consequently, higher affinity phage clones would have a lower phage IC50 value, with a concomitant leftward-shift in the binding curves, compared to lower affinity phage clones.

Row | Binder | IC50 [nM]
45 | B22 | 25
